System: Escherichia coli TOP10
Assay: shrunken log2 fold change of peptide-encoding DNA abundance (4.5 h post-induction vs induction); higher = less antimicrobial activity (less host growth inhibition)
Conditions: time post-induction: 4.5 h; library: site-saturation at positions 5, 18, 19, 20
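Note: peptides expressed intracellularly from a pBAD plasmid library in pooled LB shake-flask culture, induced with 0.3% L-arabinose, DNA abundance read by NGS, three biological replicates, DESeq2 with apeglm shrinkage.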

Sequence | shrunken log2 fold change
RRIRARPPRLPRPRPRPMPNPRP | 0.353
RRIRNRPPRLPRPRPRPMQYPRP | -0.267
RRIRQRPPRLPRPRPRPQVMPRP | 0.095
RRIRKRPPRLPRPRPRPTDRPRP | 0.209
RRIRYRPPRLPRPRPRPYTCPRP | -0.00145
RRIRNRPPRLPRPRPRPEKIPRP | -0.0207
RRIRFRPPRLPRPRPRPLLCPRP | -0.105
RRIRERPPRLPRPRPRPWYQPRP | -0.219
RRIRHRPPRLPRPRPRPLMCPRP | 0.0994
RRIRDRPPRLPRPRPRPMLWPRP | 0.015
RRIRYRPPRLPRPRPRPQHPPRP | -0.595
RRIRVRPPRLPRPRPRPCTEPRP | -0.167
RRIRPRPPRLPRPRPRPNRWPRP | 0.106
RRIRERPPRLPRPRPRPVRAPRP | 0.287
RRIRMRPPRLPRPRPRPQAGPRP | 0.214
RRIRWRPPRLPRPRPRPVKMPRP | 0.125
RRIRYRPPRLPRPRPRPLGNPRP | 0.0523
RRIRHRPPRLPRPRPRPAESPRP | -0.218
RRIRLRPPRLPRPRPRPCPWPRP | -0.129
RRIRERPPRLPRPRPRPTPPPRP | 0.491

Sequence | shrunken log2 fold change
RRIRSRPPRLPRPRPRPTGEPRP | 0.0361
RRIRFRPPRLPRPRPRPFGFPRP | -0.436
RRIRGRPPRLPRPRPRPVNHPRP | 0.301
RRIRWRPPRLPRPRPRPRGWPRP | 1.13
RRIRRRPPRLPRPRPRPSMGPRP | -0.0183
RRIRIRPPRLPRPRPRPFYSPRP | -0.476
RRIRHRPPRLPRPRPRPNFDPRP | -0.0783
RRIRWRPPRLPRPRPRPNFFPRP | 0.0572
RRIRLRPPRLPRPRPRPYLLPRP | -0.248
RRIRYRPPRLPRPRPRPNGVPRP | 0.0238
RRIRDRPPRLPRPRPRPITQPRP | 0.000804
RRIRQRPPRLPRPRPRPHIGPRP | -0.0345
RRIRYRPPRLPRPRPRPSEEPRP | -0.111
RRIRHRPPRLPRPRPRPNVWPRP | 0.0763
RRIRHRPPRLPRPRPRPELDPRP | 0.6
RRIRERPPRLPRPRPRPVVGPRP | -0.106
RRIRWRPPRLPRPRPRPKDWPRP | 0.246
RRIRIRPPRLPRPRPRPCSAPRP | -0.392
RRIRSRPPRLPRPRPRPNSFPRP | -0.63
RRIRGRPPRLPRPRPRPWYIPRP | -0.291

Sequence | shrunken log2 fold change
RRIRCRPPRLPRPRPRPFLAPRP | 0.0788
RRIRHRPPRLPRPRPRPRMDPRP | 0.0986
RRIRMRPPRLPRPRPRPFSCPRP | -0.115
RRIRYRPPRLPRPRPRPQQLPRP | -0.181
RRIRGRPPRLPRPRPRPDFEPRP | 0.988
RRIRQRPPRLPRPRPRPTVHPRP | -0.367
RRIRQRPPRLPRPRPRPCWCPRP | -0.0854
RRIRVRPPRLPRPRPRPTQMPRP | 0.19
RRIRFRPPRLPRPRPRPWNQPRP | 0.0676
RRIRWRPPRLPRPRPRPYSQPRP | -0.425
RRIRTRPPRLPRPRPRPAQLPRP | -0.216
RRIRMRPPRLPRPRPRPLKAPRP | 0.541
RRIRYRPPRLPRPRPRPSYFPRP | -0.684
RRIRNRPPRLPRPRPRPNPPPRP | 0.143
RRIRLRPPRLPRPRPRPLTTPRP | -0.0027
RRIRTRPPRLPRPRPRPWWTPRP | -0.045
RRIRFRPPRLPRPRPRPKMPPRP | -0.0572
RRIRGRPPRLPRPRPRPLQMPRP | 2.6
RRIRMRPPRLPRPRPRPQPPPRP | 1.18
RRIRLRPPRLPRPRPRPCIQPRP | -0.675

— the supplement of paper PMC9112550, “Optimization of the antimicrobial peptide Bac7 by deep mutational scanning” (BMC Biology, 2022)
